{"source": "paper doi:10.1101/2024.01.16.575832", "about": "“Heterodimerization of Endolysin Isoforms During Bacterial Infection by Staphylococcal Phage φ2638A” (bioRxiv, 2024)", "binders": {"B1": {"name": "central amidase domain of Ply2638A (Ami) (domain or fragment, UniProt Q4ZD58 180-359, looked up)", "chain": "LKHIYSNHIKGNKITAPKPSIQGVVIHNDYGSMTPSQYLPWLYARENNGTHVNGWASVYANRNEVLWYHPTDYVEWHCGNQWANANLIGFEVCESYPGRISDKLFLENEEATLKVAADVMKSYGLPVNRNTVRLHNEFFGTSCPHRSWDLHVGKGEPYTTTNINKMKDYFIKRIKHYYDG", "notes": "Endolysin Ply2638A of phage φ2638A, central N-acetylmuramoyl-L-alanine amidase domain, residues 180-359 (Leu180-Gly359); The limits are printed for the construct used in crystallisation trials; also called amidase domain alone; source: E. coli, purified (cation exchange chromatography, SEC)"}, "B2": {"name": "Ply2638A short variant isoform (PlySV) (domain or fragment, UniProt Q4ZD58 180-486, looked up)", "chain": "LKHIYSNHIKGNKITAPKPSIQGVVIHNDYGSMTPSQYLPWLYARENNGTHVNGWASVYANRNEVLWYHPTDYVEWHCGNQWANANLIGFEVCESYPGRISDKLFLENEEATLKVAADVMKSYGLPVNRNTVRLHNEFFGTSCPHRSWDLHVGKGEPYTTTNINKMKDYFIKRIKHYYDGGKLEVSKAATIKQSDVKQEVKKQEAKQIVKATDWKQNKDGIWYKAEHASFTVTAPEGIITRYKGPWTGHPQAGVLQKGQTIKYDEVQKFDGHVWVSWETFEGETVYMPVRTWDAKTGKVGKLWGEIK", "notes": "expected mass 35.3 kDa; the C-terminal SH3b domain ends at residue 486; The first residue may be Met when translation starts at the TTG codon or in the recombinant construct (surmise); also called SV isoform; short variant (SV); source: E. coli, purified (cation exchange chromatography, SEC); also co-produced with the FL isoform from pET302_PlyWT (PlyWT), purified the same way"}}, "key": {"[1]": {"molecular_target": "T1, full-length Ply2638A endolysin (PlyFL) (Staphylococcus pseudintermedius phage …, UniProt Q4ZD58 1-486)", "T1 construct": "Endolysin Ply2638A of Staphylococcus pseudintermedius phage φ2638A, full length (M23 endopeptidase, central amidase, C-terminal SH3b CBD; SH3b domain is residues 393-486); internal start codon TTG at Leu180 silently changed to CTC so that only the FL isoform is made; expected mass 55.5 kDa; The TTG>CTC change at Leu180 is silent (Leu to Leu); Purified as a protein without a His-tag; In the SEC of …", "T1 sequence (looked up)": "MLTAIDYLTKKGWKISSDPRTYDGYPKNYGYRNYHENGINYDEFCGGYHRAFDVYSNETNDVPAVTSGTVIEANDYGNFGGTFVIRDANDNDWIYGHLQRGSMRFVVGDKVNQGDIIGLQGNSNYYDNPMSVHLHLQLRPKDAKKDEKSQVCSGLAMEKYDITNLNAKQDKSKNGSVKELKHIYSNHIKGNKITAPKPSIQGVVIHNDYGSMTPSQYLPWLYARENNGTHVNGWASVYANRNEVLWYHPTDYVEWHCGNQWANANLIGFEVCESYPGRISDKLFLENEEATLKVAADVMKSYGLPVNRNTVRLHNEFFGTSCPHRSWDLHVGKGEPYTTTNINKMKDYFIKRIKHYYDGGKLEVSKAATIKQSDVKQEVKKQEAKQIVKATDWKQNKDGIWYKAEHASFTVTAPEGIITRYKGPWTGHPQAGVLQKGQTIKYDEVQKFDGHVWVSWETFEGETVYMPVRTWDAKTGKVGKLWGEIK", "assay": "SPR; Biacore X, PlyFL immobilised by amine coupling on a CMD500L chip; analytes at 750 nM, 1 μM, 2.5 μM and 5 μM, 10 μL/min, running buffer PBS pH 7.4; steady state not attained", "conditions": "both partners purified"}, "[2]": {"molecular_target": "T1, full-length Ply2638A endolysin (PlyFL)", "assay": "SEC-MALS; 1:3 (w/w) mixture of PlyFL and PlySV at 1 mg/mL, Superdex 200 10/30, 10 mM HEPES, 150 mM NaCl, 3.4 mM EDTA, 0.005 % Tween20, pH 7.4", "conditions": "both partners purified"}}}
{"binder": "B1", "values": [{"measurement": "binding result", "setting": "[1]", "result": "binds"}]}
{"binder": "B2", "values": [{"measurement": "stoichiometry N", "setting": "[2]", "result": 1, "unit": "PlySV per PlyFL"}]}
